# Measured values: patent US20230131339A1, “EPI-X4 BASED PEPTIDES AND DERIVATIVES THEREOF” (Universitaet Ulm, priority 2020, published 2023)
# Several values for one entry are separate records, joined by “and”; a condition that tells them apart may be missing. Equal values may be shown once. Where a SMILES comes first, the peptide text is derived from it. Primed or numbered codes have the meaning given here. Where no end group is shown, it is not given here. Side-chain parts run from the residue outwards. [ ]: non-standard residue; d: D form. The star is where a group is joined. Glu″ = glutamate linker (Glu-Pal); Palmitoyl = CCCCCCCCCCCCCCCC(=O)*; Ole = not defined here
# B1: JM#13 (peptide)
# peptide: ILRWSRKMPCVS
# B2: JM#238 (peptide)
# peptide: [dI]LRWSRK-NH2
# modifications: not fully specified (residue 7)
# B3: JM#22 (peptide)
# peptide: ILRWSRKFPCVS
# B4: JM#183 (peptide)
# peptide: ILRWSRK(Ole)LPCVS
# modifications: reading uncertain
# B5: JM#20 (peptide)
# peptide: ILRWSRKMPCMS
# B6: JM#172 (peptide)
# peptide: ILRWSRK(Palmitoyl)L-NH2
# modifications: N-terminus assumed
# SMILES: CCCCCCCCCCCCCCCC(=O)NCCCC[C@H](NC(=O)[C@H](CCCNC(=N)N)NC(=O)[C@H](CO)NC(=O)[C@H](Cc1c[nH]c2ccccc12)NC(=O)[C@H](CCCNC(=N)N)NC(=O)[C@H](CC(C)C)NC(=O)[C@@H](N)[C@@H](C)CC)C(=O)N[C@@H](CC(C)C)C(N)=O
# B7: JM#213 (peptide)
# peptide: ILRWSRKLPCVS
# modifications: not fully specified (residue 7)
# B8: SC024 (peptide)
# peptide: ILRWSRKLPCVS
# modifications: also: coupled to PEG 20 kDa, site not given here
# B9: JM#255 (peptide)
# peptide: ILRWSRK-NH2
# modifications: not fully specified (residue 7)
# B10: JM#194 (peptide)
# peptide: [dL]MRWSRK-NH2
# modifications: not fully specified (residue 7)
# B11: JM#257 (peptide)
# peptide: [dL]LRWSRK-NH2
# modifications: not fully specified (residue 7)
# B12: JM#192 (peptide)
# peptide: ILRWSRK-NH2
# modifications: not fully specified (residue 7)
# B13: SC029 (peptide)
# peptide: ILRWSRKLPCVS
# modifications: also: peptide copies coupled to the two different ends of PEG 20 kDa
# B14: JM#180 (peptide)
# peptide: [dL]MRWSRK(Palmitoyl)-NH2
# modifications: N-terminus assumed
# SMILES: CCCCCCCCCCCCCCCC(=O)NCCCC[C@H](NC(=O)[C@H](CCCNC(=N)N)NC(=O)[C@H](CO)NC(=O)[C@H](Cc1c[nH]c2ccccc12)NC(=O)[C@H](CCCNC(=N)N)NC(=O)[C@H](CCSC)NC(=O)[C@H](N)CC(C)C)C(N)=O
# B15: SC033 (peptide)
# peptide: ILRWSRKLPCVS
# modifications: also: PEG-coupled, average 5 kDa
# B16: JM#19 (peptide)
# peptide: ILRWSRKMPCFS
# B17: JM#18 (peptide)
# peptide: ILRWSRKMPCLS
# B18: JM#17 (peptide)
# peptide: IMRWSRKMPCVS
# B19: JM#235 (peptide)
# peptide: [dL]LRWSRK-NH2
# modifications: not fully specified (residue 7)
# How the values were obtained:
# [1] = system: CXCR4-tropic X4-HIV-1 (NL4-3); format: cell-based; settings: for IC50: CXCR4-tropic X4- (NL4-3)
# Method: The activity of the peptides was estimated by different assays.
# The X4-HIV inhibition assay is designed to measure the activity of the inventive peptides by their efficiency of blocking the infection of tissue culture cells by CXCR4-tropic HIV-1 variants.
# HIV-1 inhibition assay. […] For infection of TZM-bl cells in presence of inhibitors, cells were seeded at a density of 1×10^5 cells/ml in 70 μl DMEM containing 2.5% FCS. Compounds were diluted in PBS and 10 μl were added. After 15 minutes of incubation cells were inoculated with 20 μl of diluted virus. Infection rates were determined three days later using Gal-Screen system (Applied Biosystems).
# [2] = Functional stability assay in human plasma
# Method: Fourth, the stability of peptides in human plasma and whole human blood was tested (FIG. 4). The functional stability of EPI-X4 (SEQ ID NO.: 1) derivatives was screened using a CXCR4 antibody-based screening approach. Peptides were diluted in full human plasma or blood (>99%) and the functional activity was then measured after either 2 hours or 8 hours and compared to a sample that was not incubated in plasma or blood.
# In this test, the peptides were incubated in human plasma for a certain time period.
# Stability assay. Whole blood was collected from healthy donors in EDTA tubes and directly used or subsequently centrifuged for 15 min at 2,500×g to obtain plasma. Plasma from 6 donors was pooled and stored in aliquots at −80° C. Compounds were 200-fold diluted in human plasma or whole human blood to reach final concentrations of 20 μM. The t=0 sample was immediately taken and stored at −80° C. Plasma/compound or blood/compound mixture was then transferred to 37° C. and shook at 350 rpm. At given time points samples were taken and stored at −80° C.°. For measuring the functional activity of the plasma/peptide samples, the mixtures were thawed and diluted in ice cold PBS. 12G5-APC antibody competition was then performed as described before. For blood/peptide functional stability, samples were thawed and centrifuged at 14,000 rpm to remove cells and debris. The supernatant was then diluted in PBS and 12G5-antibody competition assay was performed. After the 2 hours incubation, the cells were washed and 50 μl of 1-step-Fix/Lyse solution (Thermo Fisher #00-5333-54) was added for 15 minutes at room temperature. Afterwards cells were washed again and analyzed for bound antibody.
# [3] = biological target: CXC chemokine receptor type 4 (CXCR4) (human, UniProt P61073 1-352); test: cell-based or functional assay
# Chain of CXC chemokine receptor type 4 (CXCR4) (P61073 whole entry): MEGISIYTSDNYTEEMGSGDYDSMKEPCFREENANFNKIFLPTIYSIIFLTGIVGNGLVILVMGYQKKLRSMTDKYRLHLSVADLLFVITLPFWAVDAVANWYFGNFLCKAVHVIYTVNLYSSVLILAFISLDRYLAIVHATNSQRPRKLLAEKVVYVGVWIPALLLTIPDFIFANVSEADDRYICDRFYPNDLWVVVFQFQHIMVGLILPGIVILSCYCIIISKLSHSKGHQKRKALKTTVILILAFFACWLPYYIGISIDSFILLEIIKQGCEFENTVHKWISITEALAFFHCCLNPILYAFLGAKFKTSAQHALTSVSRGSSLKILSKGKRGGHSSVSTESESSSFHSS
molecule,measurement,setting,value
CC[C@H](C)[C@H](N)C(=O)N[C@@H](CC(C)C)C(=O)N[C@@H](CCCNC(=N)N)C(=O)N[C@@H](Cc1c[nH]c2ccccc12)C(=O)N[C@@H](CO)C(=O)N[C@@H](CCCNC(=N)N)C(=O)N[C@@H](CCCCN)C(=O)N[C@@H](CCSC)C(=O)N1CCC[C@H]1C(=O)N[C@@H](CS)C(=O)N[C@@H](Cc1ccccc1)C(=O)N[C@@H](CO)C(=O)O [JM #19] (H-ILRWSRKMPCFS-OH; C-terminus assumed),IC50,[1],5 to 10 nM
CC[C@H](C)[C@H](N)C(=O)N[C@@H](CCSC)C(=O)N[C@@H](CCCNC(=N)N)C(=O)N[C@@H](Cc1c[nH]c2ccccc12)C(=O)N[C@@H](CO)C(=O)N[C@@H](CCCNC(=N)N)C(=O)N[C@@H](CCCCN)C(=O)N[C@@H](CCSC)C(=O)N1CCC[C@H]1C(=O)N[C@@H](CS)C(=O)N[C@H](C(=O)N[C@@H](CO)C(=O)O)C(C)C [JM #17] (H-IMRWSRKMPCVS-OH; C-terminus assumed),IC50,[1],< 5 nM
d-MLRWSRK(Glu-Pal)-NH2 ([dM]LRWSRK([Glu″-Palmitoyl])-NH2) [JM #196],anti-HIV-1 activity (in words),[1],strongly increased anti-HIV-1 activity
"SC033: PEG-coupled peptide JM #21, average molecular mass 5 kDa (ILRWSRKLPCVS; also: PEG-coupled, average 5 kDa, attachment site not given here)",anti-HIV-1 activity (in words),[1],comparable to the state of the art CXCR4-antagonist AMD3100 and JM #21
same,remaining (relative) activity after 8 hours of plasma incubation,"[2]; human, plasma, 8 h",72%
CC[C@H](C)[C@H](N)C(=O)N[C@@H](CC(C)C)C(=O)N[C@@H](CCCNC(=N)N)C(=O)N[C@@H](Cc1c[nH]c2ccccc12)C(=O)N[C@@H](CO)C(=O)N[C@@H](CCCNC(=N)N)C(=O)N[C@@H](CCCCN)C(=O)N[C@@H](CCSC)C(=O)N1CCC[C@H]1C(=O)N[C@@H](CS)C(=O)N[C@@H](CCSC)C(=O)N[C@@H](CO)C(=O)O [JM #20] (H-ILRWSRKMPCMS-OH; C-terminus assumed),IC50,[1],< 5 nM
d-MLRWSRKK(Glu-Pal)-NH2 ([dM]LRWSRKK([Glu″-Palmitoyl])-NH2) [JM #197],anti-HIV-1 activity (in words),[1],strongly increased anti-HIV-1 activity
d-LMRWSRKK(Glu-Pal)-NH2 ([dL]MRWSRKK([Glu″-Palmitoyl])-NH2) [JM #195],anti-HIV-1 activity (in words),[1],strongly increased anti-HIV-1 activity
"SC029: PEG 20 kDa telechelic peptide conjugate, JM #21 copies coupled to different ends of the polymer (ILRWSRKLPCVS; also: PEG 20 kDa conjugate, peptide copies at both polymer ends, site not given here)",anti-HIV-1 activity (in words),[1],comparable to the state of the art CXCR4-antagonist AMD3100 and JM #21
same,remaining (relative) activity after 8 hours of plasma incubation,"[2]; human, plasma, 8 h",38%
CC[C@H](C)[C@H](N)C(=O)N[C@@H](CC(C)C)C(=O)N[C@@H](CCCNC(=N)N)C(=O)N[C@@H](Cc1c[nH]c2ccccc12)C(=O)N[C@@H](CO)C(=O)N[C@@H](CCCNC(=N)N)C(=O)N[C@@H](CCCCN)C(=O)N[C@@H](CCSC)C(=O)N1CCC[C@H]1C(=O)N[C@@H](CS)C(=O)N[C@H](C(=O)N[C@@H](CO)C(=O)O)C(C)C [JM #13] (H-ILRWSRKMPCVS-OH; C-terminus assumed),IC50,[1],< 5 nM
CC[C@H](C)[C@H](N)C(=O)N[C@@H](CC(C)C)C(=O)N[C@@H](CCCNC(=N)N)C(=O)N[C@@H](Cc1c[nH]c2ccccc12)C(=O)N[C@@H](CO)C(=O)N[C@@H](CCCNC(=N)N)C(=O)N[C@@H](CCCCN)C(=O)N[C@@H](Cc1ccccc1)C(=O)N1CCC[C@H]1C(=O)N[C@@H](CS)C(=O)N[C@H](C(=O)N[C@@H](CO)C(=O)O)C(C)C [JM #22] (H-ILRWSRKFPCVS-OH; C-terminus assumed),IC50,[1],< 5 nM
CSCC[C@H](NC(=O)[C@H](N)CC(C)C)C(=O)N[C@@H](CCCNC(=N)N)C(=O)N[C@@H](Cc1c[nH]c2ccccc12)C(=O)N[C@@H](CO)C(=O)N[C@@H](CCCNC(=N)N)C(=O)N[C@@H](CCCCN)C(=O)N[C@@H](CCSC)C(=O)N1CCC[C@H]1C(=O)N[C@@H](CS)C(=O)N[C@H](C(=O)N[C@@H](CO)C(=O)O)C(C)C [JM #36] (H-[dL]MRWSRKMPCVS-OH; C-terminus assumed),remaining (relative) activity after 2 hours of plasma incubation,"[2]; human plasma, 2 hours",85%
same,remaining (relative) activity after 8 hours of plasma incubation,"[2]; human plasma, 8 hours",81%
CC[C@@H](C)[C@@H](N)C(=O)N[C@@H](CC(C)C)C(=O)N[C@@H](CCCNC(=N)N)C(=O)N[C@@H](Cc1c[nH]c2ccccc12)C(=O)N[C@@H](CO)C(=O)N[C@@H](CCCNC(=N)N)C(=O)N[C@@H](CCCCN)C(=O)N[C@@H](CC(C)C)C(=O)N1CCC[C@H]1C(N)=O [JM #174] (H-[dI]LRWSRKLP-NH2),remaining (relative) activity after 8 hours of plasma incubation,"[2]; human plasma, 8 hours",100%
B1,"IC50, X4-HIV-1 inhibition assay",[3],< 5 nM
B2,"IC50, HIV inhibition assay",[3],5 to 10 nM
B3,"IC50, X4-HIV-1 inhibition assay",[3],< 5 nM
B4,"IC50, HIV inhibition assay",[3],5 to 10 nM
B5,"IC50, X4-HIV-1 inhibition assay",[3],< 5 nM
B6,"IC50, HIV inhibition assay",[3],5 to 10 nM
B7,"IC50, HIV inhibition assay",[3],5 to 10 nM
B8,"IC50, HIV-1 inhibition assay",[3],118 nM
B9,"IC50, X4-HIV-1 inhibition assay",[3],< 5 nM
B10,"IC50, X4-HIV-1 inhibition assay",[3],< 5 nM and 2 nM
B11,"IC50, HIV inhibition assay",[3],5 to 10 nM
B12,"IC50, X4-HIV-1 inhibition assay",[3],< 5 nM and 2 nM
B13,"IC50, HIV-1 inhibition assay",[3],98 nM
B14,"IC50, HIV inhibition assay",[3],5 to 10 nM
B15,"IC50, HIV-1 inhibition assay",[3],716 nM
B16,"IC50, HIV inhibition assay",[3],5 to 10 nM
B17,"IC50, X4-HIV-1 inhibition assay",[3],< 5 nM
B18,"IC50, X4-HIV-1 inhibition assay",[3],< 5 nM
B19,"IC50, HIV inhibition assay",[3],5 to 10 nM
